Laboratory results published in patent US20160251438A1 (LUDWIG INSTITUTE FOR CANCER RESEARCH, published 2016).

Experiments:
Assay in all cases: FACS titration on transfected 293T; EC50 mutant / EC50 WT [cont.) B]
[1] = target: GARP G139N / TGF-β1 complex (human, UniProt Q14392 20-662; P01137 30-390)
Experimental: (§1) Intensities of staining at each concentration of antibody relative to the maximal intensity measured at 5 μg/ml were determined as follows:
(§2) The relative staining intensities were plotted according to the concentration of antibody used for staining, and a non-linear regression analysis was used with the Prism software to determine an EC₅₀ value for binding of the antibody to the WT and to each of the various mutant GARP/TGF-β1 complexes. If the ratio between the EC₅₀ measured on the mutant and the EC₅₀ measured on the WT was >2, the mutation was considered to induce a reduced avidity for binding by the antibody. The ratio of EC₅₀ (mutant vs WT) for MHG-8 and LHG-10 are indicated below each mutation on FIG. 19, parts A and B, respectively.

[2] = target: GARP Y137H / TGF-β1 complex (human, UniProt Q14392 20-662; P01137 30-390)
Experimental: as §1, §2

[3] = target: GARP T162D / TGF-β1 complex (human, UniProt Q14392 20-662; P01137 30-390)
Experimental: as §1, §2

[4] = target: GARP / TGF-β1 S337A complex (human, UniProt Q14392 20-662; P01137 30-390)
Experimental: as §1, §2

[5] = target: GARP / TGF-β1 Q272Y complex (human, UniProt Q14392 20-662; P01137 30-390)
Experimental: as §1, §2

[6] = target: GARP / TGF-β1 Q269Y complex (human, UniProt Q14392 20-662; P01137 30-390)
GARP / TGF-β1 Q269Y complex, sequence (Q14392 20-662 limits assumed, chain 1 of 2): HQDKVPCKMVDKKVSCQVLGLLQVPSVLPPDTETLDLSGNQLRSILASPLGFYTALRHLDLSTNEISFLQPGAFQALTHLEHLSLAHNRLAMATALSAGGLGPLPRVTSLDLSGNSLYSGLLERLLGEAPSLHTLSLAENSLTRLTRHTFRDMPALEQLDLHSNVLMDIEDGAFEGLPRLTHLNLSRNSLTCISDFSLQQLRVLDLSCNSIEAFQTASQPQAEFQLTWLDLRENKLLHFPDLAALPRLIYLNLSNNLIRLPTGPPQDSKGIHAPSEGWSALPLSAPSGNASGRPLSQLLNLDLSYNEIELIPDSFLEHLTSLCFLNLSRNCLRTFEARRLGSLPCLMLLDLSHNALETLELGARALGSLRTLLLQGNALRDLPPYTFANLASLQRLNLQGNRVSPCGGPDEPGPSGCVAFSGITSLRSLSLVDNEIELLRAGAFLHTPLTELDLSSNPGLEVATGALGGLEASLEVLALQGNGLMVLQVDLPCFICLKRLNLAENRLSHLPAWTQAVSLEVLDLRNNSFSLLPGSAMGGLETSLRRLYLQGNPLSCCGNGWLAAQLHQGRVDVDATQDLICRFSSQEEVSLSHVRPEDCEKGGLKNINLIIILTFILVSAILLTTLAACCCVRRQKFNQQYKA
GARP / TGF-β1 Q269Y complex, sequence (P01137 30-390 Q269Y limits assumed, chain 2 of 2): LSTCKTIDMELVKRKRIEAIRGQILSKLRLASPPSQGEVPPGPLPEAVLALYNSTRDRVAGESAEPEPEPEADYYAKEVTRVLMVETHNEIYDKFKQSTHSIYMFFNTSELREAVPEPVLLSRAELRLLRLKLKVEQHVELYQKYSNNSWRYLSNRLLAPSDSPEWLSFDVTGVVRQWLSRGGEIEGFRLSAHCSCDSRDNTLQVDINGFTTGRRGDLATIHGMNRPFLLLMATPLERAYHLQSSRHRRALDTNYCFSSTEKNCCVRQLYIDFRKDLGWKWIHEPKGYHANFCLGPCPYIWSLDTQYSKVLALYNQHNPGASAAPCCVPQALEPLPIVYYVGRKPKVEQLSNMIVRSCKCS
Experimental: as §1, §2

[7] = target: GARP R166M/H167E / TGF-β1 complex (human, UniProt Q14392 20-662; P01137 30-390)
Experimental: as §1, §2

[8] = target: GARP / TGF-β1 H270Y complex (human, UniProt Q14392 20-662; P01137 30-390)
Experimental: as §1, §2

[9] = target: GARP E189A / TGF-β1 complex (human, UniProt Q14392 20-662; P01137 30-390)
Experimental: as §1, §2

[10] = target: GARP R170A / TGF-β1 complex (human, UniProt Q14392 20-662; P01137 30-390)
Experimental: as §1, §2

[11] = target: GARP S138G / TGF-β1 complex (human, UniProt Q14392 20-662; P01137 30-390)
Experimental: as §1, §2

[12] = target: GARP / TGF-β1 K338E complex (human, UniProt Q14392 20-662; P01137 30-390)
GARP / TGF-β1 K338E complex, sequence (Q14392 20-662 limits assumed, chain 1 of 2): as the sequence (Q14392 20-662 limits assumed, chain 1 of 2) above
GARP / TGF-β1 K338E complex, sequence (P01137 30-390 K338E limits assumed, chain 2 of 2): as the sequence (P01137 30-390 Q269Y limits assumed, chain 2 of 2) above, with Y240Q, K309E counted along it
Experimental: as §1, §2

[13] = target: GARP G118L/G119L / TGF-β1 complex (human, UniProt Q14392 20-662; P01137 30-390)
Experimental: as §1, §2

[14] = target: GARP / TGF-β1 Y336A complex (human, UniProt Q14392 20-662; P01137 30-390)
Experimental: as §1, §2

[15] = target: GARP R143Y / TGF-β1 complex (human, UniProt Q14392 20-662; P01137 30-390)
Experimental: as §1, §2

[16] = target: GARP / TGF-β1 R58A complex (human, UniProt Q14392 20-662; P01137 30-390)
GARP / TGF-β1 R58A complex, sequence (Q14392 20-662 limits assumed, chain 1 of 2): as the sequence (Q14392 20-662 limits assumed, chain 1 of 2) above
GARP / TGF-β1 R58A complex, sequence (P01137 30-390 R58A limits assumed, chain 2 of 2): as the sequence (P01137 30-390 Q269Y limits assumed, chain 2 of 2) above, with R29A, Y240Q counted along it
Experimental: as §1, §2

[17] = target: GARP L140K/E142L / TGF-β1 complex (human, UniProt Q14392 20-662; P01137 30-390)
Experimental: as §1, §2

[18] = target: GARP T165A / TGF-β1 complex (human, UniProt Q14392 20-662; P01137 30-390)
Experimental: as §1, §2

[19] = target: GARP / TGF-β1 E146R complex (human, UniProt Q14392 20-662; P01137 30-390)
GARP / TGF-β1 E146R complex, sequence (Q14392 20-662 limits assumed, chain 1 of 2): as the sequence (Q14392 20-662 limits assumed, chain 1 of 2) above
GARP / TGF-β1 E146R complex, sequence (P01137 30-390 E146R limits assumed, chain 2 of 2): as the sequence (P01137 30-390 Q269Y limits assumed, chain 2 of 2) above, with E117R, Y240Q counted along it
Experimental: as §1, §2

[20] = target: GARP R163E / TGF-β1 complex (human, UniProt Q14392 20-662; P01137 30-390)
Experimental: as §1, §2

B1: LHG-10 (antibody, human IgG1, V domains shown)
VH: EVQLVQPGAELRNSGASVKVSCKASGYRFTSYYIDWVRQAPGQGLEWMGRIDPEDGGTKYAQKFQGRVTFTADTSTSTAYVELSSLRSEDTAVYYCARNEWETVVVGDLMYEYEYWGQGTQVTVSS
VL: DIQMTQSPTSLSASLGDRVTITCQASQSISSYLAWYQQKPGQAPKLLIYGASRLQTGVPSRFSGSGSGTSFTLTISGLEAEDAGTYYCQQYDSLPVTFGQGTKVELK
notes: llama-derived V regions in a full human IgG1
With B1 the “Ratio of EC50 (mutant / wt)” value [1] was 1.2, the “Ratio of EC50 (mutant / wt)” value [2] was 0.6 and the “Ratio of EC50 (mutant / wt)” value [3] was 2.5. The “Ratio of EC50 (mutant / wt)” value [4] was 1.4, the “Ratio of EC50 (mutant / wt)” value [5] was 0.9 and the “Ratio of EC50 (mutant / wt)” value [6] was 0.8. For the same binder, the “Ratio of EC50 (mutant / wt)” value [7] was 1.5, the “Ratio of EC50 (mutant / wt)” value [8] was 0.7 and the “Ratio of EC50 (mutant / wt)” value [9] was 0.8. The “Ratio of EC50 (mutant / wt)” value [10] was 1.5, the “Ratio of EC50 (mutant / wt)” value [11] was 0.6 and the “Ratio of EC50 (mutant / wt)” value [12] was 7.2. The “Ratio of EC50 (mutant / wt)” value [13] was 0.8, the “Ratio of EC50 (mutant / wt)” value [14] was 1.9 and the “Ratio of EC50 (mutant / wt)” value [15] was 1.6. For the same binder, the “Ratio of EC50 (mutant / wt)” value [16] was 1.5, the “Ratio of EC50 (mutant / wt)” value [17] was 0.7 and the “Ratio of EC50 (mutant / wt)” value [18] was 1. For the same binder, the “Ratio of EC50 (mutant / wt)” value [19] was 0.8 and the “Ratio of EC50 (mutant / wt)” value [20] was 4.1.
